From patent US20120283194, “Inhibitors of Atypical Protein Kinase C and Their Use in Treating Hedgehog Pathway-Dependent Cancers” (published 2012)

What was measured:
[1] = molecular target: T1, aPKC (HIS:aPKC) (UniProt P41743 P41743:1-596); assay: EMSA; aPKC alone did not bind; settings: tags: HIS, Abcam
T1 sequence: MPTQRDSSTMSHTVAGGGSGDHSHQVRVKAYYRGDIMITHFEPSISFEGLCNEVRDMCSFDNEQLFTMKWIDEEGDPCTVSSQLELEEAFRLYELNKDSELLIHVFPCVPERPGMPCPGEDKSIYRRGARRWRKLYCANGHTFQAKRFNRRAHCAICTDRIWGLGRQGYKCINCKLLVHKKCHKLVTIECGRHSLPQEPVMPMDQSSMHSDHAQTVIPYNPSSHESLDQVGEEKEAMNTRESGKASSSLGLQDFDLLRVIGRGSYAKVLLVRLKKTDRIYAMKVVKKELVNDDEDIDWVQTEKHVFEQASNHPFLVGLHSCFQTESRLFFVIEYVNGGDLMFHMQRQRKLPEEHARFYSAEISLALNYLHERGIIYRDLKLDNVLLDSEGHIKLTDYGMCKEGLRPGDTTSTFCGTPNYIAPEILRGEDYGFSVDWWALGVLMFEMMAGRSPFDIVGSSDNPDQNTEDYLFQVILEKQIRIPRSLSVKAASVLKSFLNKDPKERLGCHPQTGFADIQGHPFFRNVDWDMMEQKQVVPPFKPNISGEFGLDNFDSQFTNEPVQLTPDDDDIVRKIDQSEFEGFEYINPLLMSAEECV
Protocol: (§1) Electrophoretic mobility shift assay performed by incubation of 50 fmol double-stranded radiolabeled Gli1 oligos (5′ […] 3′ (SEQ IF NO:5)) in binding buffer ([…] pH 7.5, mM KCl, 2.5 mM MgCl2, 1 mM DTT, 10% glycerol, 25 uM poly(dO-dC), 5 uM ZnSO₄) with IVT Gli1:V5/HIS lysate for 10 min at room temperature. 2 pmol unlabeled Gli1 oligos or Gli1 mutant oligos (5′ […] 3′ (SEQ ID NO:6)) used as competition. Endogenous aPKC inhibited in reticulocyte lysate with PSI during translation reaction and rescue performed by adding recombinant HIS:aPKC for 15 min before addition of radiolabeled Gli1 oligos. Samples were resolved on 6% acrylamide gel and exposed to a phosphor screen (Molecular Dynamics) and imaged with GE Typhoon 9410.
(§2) We asked whether phosphorylated Gli1 affects the mobility of radiolabeled Gli1 target DNA in an electrophoretic mobility assay.

[2] = molecular target: Gli1 (Homo sapiens, UniProt P08151 P08151:1-1106); assay: EMSA; Zn, Mg, poly(dI-dC)-type competitor, room temperature; binding reduced by PSI during translation and rescued by recombinant aPKC; over-phosphorylation disrupts; settings: tags: V5/HIS, rabbit reticulocyte lysate (Promega)
Sequence of Gli1 (P08151 whole entry, one chain of several): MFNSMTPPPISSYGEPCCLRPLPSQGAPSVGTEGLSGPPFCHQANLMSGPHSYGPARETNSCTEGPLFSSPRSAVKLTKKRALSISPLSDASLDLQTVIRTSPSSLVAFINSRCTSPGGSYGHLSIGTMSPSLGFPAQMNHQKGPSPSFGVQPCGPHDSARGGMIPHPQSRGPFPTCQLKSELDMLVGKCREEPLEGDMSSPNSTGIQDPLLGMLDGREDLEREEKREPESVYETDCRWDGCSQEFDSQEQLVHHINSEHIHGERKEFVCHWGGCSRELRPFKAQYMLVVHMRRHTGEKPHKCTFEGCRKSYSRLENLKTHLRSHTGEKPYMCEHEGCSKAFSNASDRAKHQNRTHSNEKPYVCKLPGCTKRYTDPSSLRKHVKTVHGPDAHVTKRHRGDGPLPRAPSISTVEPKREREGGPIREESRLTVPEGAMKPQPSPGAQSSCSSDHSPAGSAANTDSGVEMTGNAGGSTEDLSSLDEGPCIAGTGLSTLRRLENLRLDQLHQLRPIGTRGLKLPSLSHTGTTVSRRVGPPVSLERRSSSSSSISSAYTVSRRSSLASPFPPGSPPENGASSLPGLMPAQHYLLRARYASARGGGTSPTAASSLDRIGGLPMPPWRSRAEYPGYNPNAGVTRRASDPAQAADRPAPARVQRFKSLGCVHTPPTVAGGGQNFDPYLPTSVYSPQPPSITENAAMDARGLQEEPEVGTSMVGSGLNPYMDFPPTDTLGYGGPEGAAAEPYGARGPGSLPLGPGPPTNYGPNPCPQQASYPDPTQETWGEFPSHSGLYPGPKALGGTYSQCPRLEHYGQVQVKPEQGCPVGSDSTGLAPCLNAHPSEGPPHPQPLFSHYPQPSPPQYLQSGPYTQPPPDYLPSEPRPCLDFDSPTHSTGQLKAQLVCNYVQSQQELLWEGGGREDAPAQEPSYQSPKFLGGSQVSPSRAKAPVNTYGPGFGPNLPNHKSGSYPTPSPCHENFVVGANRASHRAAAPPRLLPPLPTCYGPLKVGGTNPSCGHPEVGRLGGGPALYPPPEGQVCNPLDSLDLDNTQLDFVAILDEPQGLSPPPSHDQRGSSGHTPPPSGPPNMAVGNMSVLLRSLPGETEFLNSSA
Protocol: as §1, §2

B1: Gli1 target oligo (dsDNA)
DNA 1: AGCCCGGACCACCCACGAGAA
DNA 2: TTCTCGTGGGTGGTCCGGGCT
B1: no binding [1]; binds [2].
